In patent US20230138315A1 (JIANGSU HENGRUI MEDICINE, published 2023):

T1: rat ANGPTL3(17-455)-His (rat, biotin-labelled in the ELISA and HTRF assays (sites not given))
T1 construct: also called full-length rat ANGPTL3
T1 chain: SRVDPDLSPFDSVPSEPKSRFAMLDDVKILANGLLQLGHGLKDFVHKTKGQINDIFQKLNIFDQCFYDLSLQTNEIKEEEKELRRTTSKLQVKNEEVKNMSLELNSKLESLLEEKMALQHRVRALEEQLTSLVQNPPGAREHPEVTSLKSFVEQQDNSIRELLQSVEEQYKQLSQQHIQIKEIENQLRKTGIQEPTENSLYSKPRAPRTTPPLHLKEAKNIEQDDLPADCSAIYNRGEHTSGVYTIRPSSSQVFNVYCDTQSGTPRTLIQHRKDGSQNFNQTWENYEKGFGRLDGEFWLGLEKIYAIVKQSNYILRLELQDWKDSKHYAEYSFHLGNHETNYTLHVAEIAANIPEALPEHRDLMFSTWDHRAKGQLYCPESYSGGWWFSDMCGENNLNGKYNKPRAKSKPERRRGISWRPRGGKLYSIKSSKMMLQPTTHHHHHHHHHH

T2: human-ANGPTL3(17-460)-His (human, UniProt Q9Y5C1 17-460, biotin-labelled (labelling kit, sites not stated))
T2 construct: also called full-length human ANGPTL3
T2 sequence: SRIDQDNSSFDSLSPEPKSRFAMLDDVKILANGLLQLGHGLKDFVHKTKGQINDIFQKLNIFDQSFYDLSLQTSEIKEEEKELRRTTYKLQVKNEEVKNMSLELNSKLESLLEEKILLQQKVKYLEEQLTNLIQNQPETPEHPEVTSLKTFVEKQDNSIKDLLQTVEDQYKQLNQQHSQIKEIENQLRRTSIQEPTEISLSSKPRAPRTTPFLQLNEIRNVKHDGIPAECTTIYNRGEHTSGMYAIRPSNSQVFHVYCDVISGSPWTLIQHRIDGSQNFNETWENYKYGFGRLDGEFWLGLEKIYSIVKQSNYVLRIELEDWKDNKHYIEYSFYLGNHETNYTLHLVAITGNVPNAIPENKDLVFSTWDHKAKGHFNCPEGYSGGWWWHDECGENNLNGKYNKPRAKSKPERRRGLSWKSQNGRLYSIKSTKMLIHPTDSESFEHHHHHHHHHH

T3: mouse ANGPTL3(17-455)-His (mouse, UniProt Q9R182 17-455, biotin-labelled in the ELISA and HTRF assays (sites not given))
T3 construct: also called full-length mouse ANGPTL3
T3 sequence: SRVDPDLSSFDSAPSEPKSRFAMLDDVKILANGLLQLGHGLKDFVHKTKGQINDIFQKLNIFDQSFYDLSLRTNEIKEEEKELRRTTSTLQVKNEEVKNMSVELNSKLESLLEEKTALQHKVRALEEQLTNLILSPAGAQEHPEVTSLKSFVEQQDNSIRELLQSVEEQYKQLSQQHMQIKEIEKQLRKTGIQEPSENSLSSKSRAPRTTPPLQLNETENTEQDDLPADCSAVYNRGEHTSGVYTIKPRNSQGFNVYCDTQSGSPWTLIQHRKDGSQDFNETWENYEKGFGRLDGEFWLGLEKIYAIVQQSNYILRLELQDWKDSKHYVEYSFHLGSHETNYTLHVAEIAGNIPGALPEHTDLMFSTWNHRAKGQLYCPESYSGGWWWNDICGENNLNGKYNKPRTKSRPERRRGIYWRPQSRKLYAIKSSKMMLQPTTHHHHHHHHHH

T4: cynomolgus monkey ANGPTL3(17-460)-His (cynomolgus monkey, UniProt Q9Y5C1 17-460 (human entry), biotin-labelled in the ELISA and HTRF assays (sites not given))
T4 construct: also called full-length cynomolgus monkey ANGPTL3; Cyno ANGPTL3
T4 chain: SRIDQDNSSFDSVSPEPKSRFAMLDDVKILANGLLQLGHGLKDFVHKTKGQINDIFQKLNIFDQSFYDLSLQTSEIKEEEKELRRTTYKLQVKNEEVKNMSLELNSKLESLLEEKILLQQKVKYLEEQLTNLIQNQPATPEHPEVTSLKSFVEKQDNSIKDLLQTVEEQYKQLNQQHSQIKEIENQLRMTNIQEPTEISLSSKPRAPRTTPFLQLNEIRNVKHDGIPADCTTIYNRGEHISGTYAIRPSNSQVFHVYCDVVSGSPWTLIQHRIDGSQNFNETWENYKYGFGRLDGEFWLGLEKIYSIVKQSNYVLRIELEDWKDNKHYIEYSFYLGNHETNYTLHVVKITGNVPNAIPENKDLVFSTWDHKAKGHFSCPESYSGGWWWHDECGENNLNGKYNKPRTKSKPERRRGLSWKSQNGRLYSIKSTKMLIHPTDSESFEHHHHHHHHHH


What was measured:
Experiment in all cases: HTRF; biotin-labelled antigen with Streptavidin-Tb cryptate
rat ANGPTL3(17-455)-His = molecular target: T1, rat ANGPTL3(17-455)-His
[1] = molecular target: T2, human-ANGPTL3(17-460)-His
[2] = molecular target: T3, mouse ANGPTL3(17-455)-His
[3] = molecular target: T4, cynomolgus monkey ANGPTL3(17-460)-His

Binder	EC50 (rat ANGPTL3(17-455)-His)	EC50 [1]	EC50 [2]	EC50 [3]
P8G (antibody, human IgG4 S228P, kappa, V domains shown, also called anti-ANGPTL3 antibody P8G; P8 (variable regions)) VH: QVQLVQSGAEVKKPGASVKVSCKASGYTFTSYDINWVRQAPGQGLEWVGLINPRDDSTSYAQKFQGRVTMTRDTSTSTMYMELSSLRSEDTAVYFCARDLGSIREVLYYGMDVWGQGTTVTVSS VL: not shown	484 pM	784 pM	450 pM	303 pM
P3G (antibody, human IgG4 S228P, kappa, V domains shown, also called anti-ANGPTL3 antibody P3G; P3 (variable regions)) VH: QVQLVQSGAEVKKPGASVKVSCKSSGYTFTDYYLHWLRQAPGQGPEWMGWISPNSGGTSYAQKFQGRVTMTRDTSISTAYMELSSLRSDDTAVYYCARDIATLGNFFTYGMDVWGQGTTVTVSS VL: DIQLTQSPSSLSASVGDRVTITCRASQGIRNDLGWYQQKPGKAPKLLIYAASSLQSGVPSRFSGSGSGTDFTLTISSLQPEDFATYYCQQSYSSWTFGQGTKVEIKR	597 pM	929 pM	638 pM	502 pM
